From paper PMC8651678 (Nature Communications, 2021)

Legend:
[1] = target: T1, human eIF2B(αβδγε)2 decamer (no capture tag) (human, UniProt Q14232;P49770;Q9UI10;Q9NR50;Q13144); experiment: fluorescence polarisation; conditions: both partners purified
T1 construct: also called decameric eIF2B; eIF2B(αβγδε)2; copies: 2 + 2 + 2 + 2 + 2

[2] = target: T2, human eIF2B(αβδγε)2 decamer, eIF2Bβ Avi-tagged and biotinylated (human, UniProt Q14232;P49770;Q9UI10;Q9NR50;Q13144, biotin on the Avi tag); experiment: SPR; conditions: both partners purified
T2 construct: also called decameric eIF2B; copies: 2 + 2 + 2 + 2 + 2

B1: Sandfly Fever Sicilian virus (SFSV) NSs protein with a C-terminal 6xHIS tag (natural protein)
chain: MINNNMMNSQYMFDYPAINIDVRCHRLLSSVSYVAYNKFHTHDVSTYEHCEIPLEKLRLGFGRRNSLADFYSLGELPASWGPACYFSSVKPMMYTFQGMASDLSRFDLTSFSRKGLPNVLKALSWPLGIPDCEIFSICSDRFVRGLQTRDQLMSYILRMGDSHSLDECIVQAHKKILQEARRLGLSDEHYNGYDLFREIGSLVCLRLINAEPFDTASSGEALDVRTVIRSYRASDPSTGLTEYGNSLWTPIHSHVDENDESSSDSDF
notes: not shown: 6xHIS, C-terminal, kept
**Q.** For B1, which EC50 [1] is on record?
**A.** 72 nM

**Q.** What about the Kd [2] of the same binder?
**A.** 30 nM
